Test results reported in patent publication US20260176358A1 (JIANGSU HENGRUI PHARMACEUTICALS, published 2026).

T1: human CGRP (human, UniProt P06881 83-119)
T1 peptide (looked up): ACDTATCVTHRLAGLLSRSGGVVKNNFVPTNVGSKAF

T2: rat CGRP (rat, UniProt P01256 83-119)
T2 peptide (looked up): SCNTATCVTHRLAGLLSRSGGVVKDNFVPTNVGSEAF


Key:
human CGRP = biological target: T1, human CGRP; assay: ELISA, coated CGRP
Method: (§1) In this test example, the abilities of the chimeric antibodies and humanized antibodies of C1 #, C9 #, C21 #, and C28 #to bind to human CGRP and rat CGRP were assessed using ELISAs. Plates were coated with […] human CGRP and rat CGRP, respectively, and blocked, and the antibodies, serially diluted, were then added. The plates were incubated for 1 h and washed, and a horseradish peroxidase-labeled anti-human Fc secondary antibody was then added. After incubation, color development was performed. […] The plates were incubated for 1 h and washed, and the antibodies, serially diluted, were then added. The plates were incubated for 1 h and washed, and a horseradish peroxidase-labeled streptavidin secondary antibody was then added. After incubation, color development was performed.

rat CGRP = biological target: T2, rat CGRP; assay: ELISA, coated CGRP
Method: as §1

CGRP = assay: cell-based or functional assay
hPDL1 = hPDL1 (human, UniProt Q9NZQ7 19-238); assay: ELISA of Test Example 4 of WO2021139758
Sequence of hPDL1 (Q9NZQ7 19-238 limits assumed): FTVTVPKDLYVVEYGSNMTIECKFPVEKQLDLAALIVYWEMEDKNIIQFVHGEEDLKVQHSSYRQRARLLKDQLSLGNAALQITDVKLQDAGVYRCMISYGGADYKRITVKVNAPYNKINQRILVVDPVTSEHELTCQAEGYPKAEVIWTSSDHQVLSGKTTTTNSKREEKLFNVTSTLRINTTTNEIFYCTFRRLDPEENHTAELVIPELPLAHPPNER

hCTLA4 = hCTLA4 (human, UniProt P16410 36-161); assay: ELISA of Test Example 4 of WO2021139758
Sequence of hCTLA4 (P16410 36-161 limits assumed): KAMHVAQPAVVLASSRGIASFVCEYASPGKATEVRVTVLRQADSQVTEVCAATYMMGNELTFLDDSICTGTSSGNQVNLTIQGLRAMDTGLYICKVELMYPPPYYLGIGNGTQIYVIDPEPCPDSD

Row | Binder | EC50 (human CGRP) [nM] | EC50 (rat CGRP) [nM] | IC50, inhibition of cAMP production in SK-N-MC cells (CGRP) [nM] | EC50 (hPDL1) [nM] | EC50 (hCTLA4) [nM]
1 | C1#-CHI (antibody, human IgG1, kappa, V domains shown, chimeric: murine variable regions fused to human constant regions; also called C1#-CH1) VH: QVQLQQSGAELVRPGSSVKISCKASGYTFSTSWMNWVKQRPGQGLEWIGQIYPGDGYTNYNGKFRGKATLTADKSSSTAYMQLSSLTSEDSAVYFCAGDYEALWGQGTTLTVSS VL: DVVMTQTPLSLPVSLGDQASISCRSSQSLVHSNGNTYFHWYLQRPGQSPKLLIYEVSNRFSGVPDRFSGSGSGTDFTLKISRVEAEDLGVYFCSQSTHVPFTFGSGTKLEIKR | 1.36 | 1.81 | 7.96 | – | –
2 | C1H3L1 (antibody, human IgG1, kappa, V domains shown) VH: EVQLVQSGAEVKKPGSSVKVSCKASGYTFSTSWMNWVRQAPGQGLEWMGQIYPGDGYTNYNVKFRGRVTITADKSTSTAYMELSSLRSEDTAVYYCAGDYEALWGQGTTVTVSS VL: DIVMTQTPLSLPVTPGEPASISCRSSQSLVHSNGNTYFHWYLQKPGQSPQLLIYEVSNRFSGVPDRFSGSGSGTDFTLKISRVEAEDVGVYYCSQSTHVPFTFGQGTKLEIKR | 1.89 | 1.95 | 9.77 | – | –
3 | C9#-CHI (antibody, human IgG1, kappa, V domains shown, chimeric: murine variable regions fused to human constant regions; also called C9#-CH1) VH: EVQLQQSGPVLVKPGASVKMSCKASGYTFTDYYMNWVKQSLGKSLEWIGVINPYNGRTTYNRKFKGKATLTVDKSSSTAYMELNSLTSEDSAVYYCASLLIRPHYFDYWGQGTTLTVSS VL: DIVMTQSQKFMATSVGDRVSVTCKASQNVGTNVAWYQQKPGQSPKALIYSASYRYSVVPDRFTGSGSGTDFTLTIRNVQSEDLAEYHCQQYNFYPYTFGAGTKLELKR | 1.58 | 3.11 | 21 | – | –
4 | C28#-CHI (antibody, human IgG1, kappa, V domains shown, chimeric: murine variable regions fused to human constant regions; also called C28#-CH1) VH: EVQLQQSGPELVKPGASVKISCEASGYTFTDYYMNWVKQSHGKSLEWIGDINPNNGVTTYNQKFKGKATLTVDKSSSTAYMELRSLTSEDSAVYYCASIIIVPDYFDYWGQGTTLTVSS VL: DIVMTHSQKFMSTSVGDRVSVTCKASQNVGSNVAWYQEKPGQSPKALIYSASYRYSGVPDRFTGSGSGTDFTLTISNVQSEDLAEYFCQQYNSYPYTFGGGTKLEIKR | 1.29 | 7.4 | 1.21 | – | –
5 | C28H2L1 (antibody, human IgG1, kappa, V domains shown) VH: EVQLVQSGAEVKKPGASVKVSCKASGYTFTDYYMNWVRQAPGQRLEWIGDINPNNVVTTYNQKFKGRATLTVDKSASTAYMELSSLRSEDTAVYYCASIIIVPDYFDYWGQGTTVTVSS VL: DIQMTQSPSSVSASVGDRVTITCKASQNVGSNVAWYQQKPGKSPKALIYSASYRYSGVPSRFSGSGSGTDFTLTISSLQPEDFATYYCQQYNSYPYTFGGGTKVEIKR | 1.33 | 4.04 | 2.55 | – | –
6 | C9H8L1 (antibody, human IgG1, kappa, V domains shown) VH: EVQLVQSGAEVKKPGASVKVSCKASGYTFTDYYMNWVRQAPGQRLEWIGVINPYTGRTTYNRKFKGRATLTVDKSASTAYMELSSLRSEDTAVYYCASLLIRPHYFDYWGQGTTVTVSS VL: DIQMTQSPSSLSASVGDRVTITCKASQNVGTNVAWYQQKPGKSPKALIYSASYRYSGVPSRFSGSGSGTDFTLTISSLQPEDVATYHCQQYNFYPYTFGQGTKLEIKR | 1.03 | 2.8 | 12.2 | – | –
7 | PL-8 (bispecific antibody) chain 1: not shown chain 2: DIVLTQSPASLAVSPGQRATITCRASESVSIHGTHLMHWYQQKPGQPPKLLIYAASKLESGVPARFSGSGSGTDFTLTINPVEAEDTANYYCQQSFEDPLTFGQGTKLEIKGGGGSGIPPKIECLPIDISIDEGKVLTVASAFTGEPTPEVTWSTGGRKIHSQEQGRFHIENTDDSTTLTIKDVQKQDGGLYTLTLRNEFGSDSATVNIHIRSI chain 3: not shown chain 4: not shown | – | – | – | 1.4 | 14.5
8 | PL-13 (bispecific antibody) chain 1: not shown chain 2: DIVLTQSPASLAVSPGQRATITCRASESVSIHGTHLMHWYQQKPGQPPKLLIYAASKLESGVPARFSGSGSGTDFTLTINPVEAEDTANYYCQQSFEDPLTFGQGTKLEIKRTVASGIPPKIECLPIDISIDEGKVLTVASCFTGEPTPEVTWSTGGRKIHSQEQGRFHIENTDDSTTLTIKDVQKQDGGLYTLTLRNEFGSDSATVNIHIRSI chain 3: not shown chain 4: not shown | – | – | – | 0.5 | 4.4
9 | PL-11 (bispecific antibody) chain 1: not shown chain 2: DIVLTQSPASLAVSPGQRATITCRASESVSIHGTHLMHWYQQKPGQPPKLLIYAASKLESGVPARFSGSGSGTDFTLTINPVEAEDTANYYCQQSFEDPLTFGQGTKLEIKRTVASGIPPKIECLPIDISIDEGKVLTVASAFTGEPTPEVTWSTGGRKIHSQEQGRFHIENTDDSTTLTIKDVQKQDGGLYTLTLRNEFGSDSATVNIHIRSI chain 3: not shown chain 4: not shown | – | – | – | 0.6 | 5.6
10 | PL-12 (bispecific antibody) chain 1: not shown chain 2: DIVLTQSPASLAVSPGQRATITCRASESVSIHGTHLMHWYQQKPGQPPKLLIYAASKLESGVPARFSGSGSGTDFTLTINPVEAEDTANYYCQQSFEDPLTFGQGTKLEIKRTVASGIPPKIECLPIDISIDEGKCLTVASAFTGEPTPEVTWSTGGRKIHSQEQGRFHIENTDDSTTLTIKDVQKQDGGLYTLTLRNEFGSDSATVNIHIRSI chain 3: not shown chain 4: not shown | – | – | – | 0.5 | 8
11 | PL-15 (bispecific antibody) chain 1: not shown chain 2: DIVLTQSPASLAVSPGQRATITCRASESVSIHGTHLMHWYQQKPGQPPKLLIYAASKLESGVPARFSGSGSGTDFTLTINPVEAEDTANYYCQQSFEDPLTFGQGTKLEIKRTVASGIPPKIECLPIDISIDEGKCLTVASAFTGEPTPEVTWSTGGRKIHSQEQGRFHIENTDDSTTLTIKDVQKQDGGLYTLTLRNEFGSDSATVNIHIRSI chain 3: not shown chain 4: not shown | – | – | – | 1.4 | 3.2
12 | PL-19 (bispecific antibody) chain 1: not shown chain 2: DIVLTQSPASLAVSPGQRATITCRASESVSIHGTHLMHWYQQKPGQPPKLLIYAASKLESGVPARFSGSGSGTDFTLTINPVEAEDTANYYCQQSFEDPLTFGQGTKLEIKRTVASGIPPKIECLPIDISIDEGKVLTVASCFTGEPTPEVTWSTGGRKIHSQEQGRFHIENTDDSTTLTIKDVQKQDGGLYTLTLRNEFGSDSATVNIHIRSI chain 3: not shown chain 4: not shown | – | – | – | 1.6 | 6.5
13 | PL-18 (bispecific antibody) chain 1: not shown chain 2: DIVLTQSPASLAVSPGQRATITCRASESVSIHGTHLMHWYQQKPGQPPKLLIYAASKLESGVPARFSGSGSGTDFTLTINPVEAEDTANYYCQQSFEDPLTFGQGTKLEIKRTVASGIPPKIECLPIDISIDEGKCLTVASAFTGEPTPEVTWSTGGRKIHSQEQGRFHIENTDDSTTLTIKDVQKQDGGLYTLTLRNEFGSDSATVNIHIRSI chain 3: not shown chain 4: not shown | – | – | – | 1.6 | 6.7
14 | PL-10 (bispecific antibody) chain 1: not shown chain 2: DIVLTQSPASLAVSPGQRATITCRASESVSIHGTHLMHWYQQKPGQPPKLLIYAASKLESGVPARFSGSGSGTDFTLTINPVEAEDTANYYCQQSFEDPLTFGQGTKLEIKGGGGSGIPPKIECLPIDISIDEGKVLTVASCFTGEPTPEVTWSTGGRKIHSQEQGRFHIENTDDSTTLTIKDVQKQDGGLYTLTLRNEFGSDSATVNIHIRSI chain 3: not shown chain 4: not shown | – | – | – | 0.6 | 6.9
15 | PL-17 (bispecific antibody) chain 1: not shown chain 2: DIVLTQSPASLAVSPGQRATITCRASESVSIHGTHLMHWYQQKPGQPPKLLIYAASKLESGVPARFSGSGSGTDFTLTINPVEAEDTANYYCQQSFEDPLTFGQGTKLEIKRTVASGIPPKIECLPIDISIDEGKVLTVASAFTGEPTPEVTWSTGGRKIHSQEQGRFHIENTDDSTTLTIKDVQKQDGGLYTLTLRNEFGSDSATVNIHIRSI chain 3: not shown chain 4: not shown | – | – | – | 1.4 | 6.2
16 | PL-9 (bispecific antibody) chain 1: not shown chain 2: DIVLTQSPASLAVSPGQRATITCRASESVSIHGTHLMHWYQQKPGQPPKLLIYAASKLESGVPARFSGSGSGTDFTLTINPVEAEDTANYYCQQSFEDPLTFGQGTKLEIKGGGGSGIPPKIECLPIDISIDEGKCLTVASAFTGEPTPEVTWSTGGRKIHSQEQGRFHIENTDDSTTLTIKDVQKQDGGLYTLTLRNEFGSDSATVNIHIRSI chain 3: not shown chain 4: not shown | – | – | – | 0.6 | 5.5
17 | PL-14 (bispecific antibody) chain 1: not shown chain 2: DIVLTQSPASLAVSPGQRATITCRASESVSIHGTHLMHWYQQKPGQPPKLLIYAASKLESGVPARFSGSGSGTDFTLTINPVEAEDTANYYCQQSFEDPLTFGQGTKLEIKRTVASGIPPKIECLPIDISIDEGKVLTVASAFTGEPTPEVTWSTGGRKIHSQEQGRFHIENTDDSTTLTIKDVQKQDGGLYTLTLRNEFGSDSATVNIHIRSI chain 3: not shown chain 4: not shown | – | – | – | 1.3 | 6
18 | C21#-CHI (antibody, human IgG1, kappa, V domains shown, chimeric: murine variable regions fused to human constant regions; also called C21#-CH1) VH: EVQLQQSGPELVKPGASVRISCKASGYTFTDYYMNWVRQSHRKSLEWIGDINPNNGGTNYNQKFKGKATLTVDKSSSTAYMELRSLTSEDSAVYYCASIIIVPNYFDYWGQGTTLTVSS VL: DIVMTQSQKFMSTSVGDRVSVTCKASQNVDTNVAWFQQRPGQSPKALIYSASYRYSGVPDRFTGSGSGTDFTLTISNVQSEDLADYFCQQYNNYPYTFGGGTKLEIER | 3.79 | 10.1 | 1.28 | – | –
